Results on 4 molecules are retold here after paper PMC8683410 (Translational Psychiatry, 2021).

Experiment [1] concerns the target T1, His6-tagged human DISC1 C-region (residues 691-836) (human), Q9NRI5.
T1 chain: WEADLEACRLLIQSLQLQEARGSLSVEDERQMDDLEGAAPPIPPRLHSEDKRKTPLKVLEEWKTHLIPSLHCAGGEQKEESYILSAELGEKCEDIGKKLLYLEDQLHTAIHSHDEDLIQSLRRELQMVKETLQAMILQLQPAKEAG
Description: negative-stain transmission electron microscopy; 10 µM protein on carbon-coated copper grids, 1% uranyl acetate; 2D classification and 3D reconstruction (RELION). The following applies: remark: other sources report otherwise.

The target in experiment [2] is T1, His6-tagged human DISC1 C-region …. Description: ITC; no titration: heat flow of the spontaneous association of the protein solution monitored in the cell (iTC-200, 300 rpm); 10-50 µM at 37 °C, 10 µM at 20-60 °C; dH from the peak area normalised to the protein amount. The following applies: remark: other sources report otherwise. On the technique in general: ITC needs no label: the signal is the heat of the interaction.

Experiment [3] has the same target. The experiment can be described thus: dynamic light scattering; His6-C-region, 10-90 µM at 37 °C; samples centrifuged at 21,000 x g before measurement. To be noted: remark: other sources report otherwise.
Experiment [4] has the same target. Description: dynamic light scattering; critical concentration of C-region monomers/oligomers in equilibrium with the fibril suspension, taken as the detection limit of the instrument; 1D crystallization model (KF = 1/[C]). To be noted: remark: other sources report otherwise.
Experiment [5] deals with T2, lissencephaly 1 (LIS1) (UniProt P43034 1-410).
T2 construct: lissencephaly 1 (LIS1); source: E. coli C43 (DE3), purified (Ni2+-NTA, Superdex 200 SEC)
T2 sequence (looked up): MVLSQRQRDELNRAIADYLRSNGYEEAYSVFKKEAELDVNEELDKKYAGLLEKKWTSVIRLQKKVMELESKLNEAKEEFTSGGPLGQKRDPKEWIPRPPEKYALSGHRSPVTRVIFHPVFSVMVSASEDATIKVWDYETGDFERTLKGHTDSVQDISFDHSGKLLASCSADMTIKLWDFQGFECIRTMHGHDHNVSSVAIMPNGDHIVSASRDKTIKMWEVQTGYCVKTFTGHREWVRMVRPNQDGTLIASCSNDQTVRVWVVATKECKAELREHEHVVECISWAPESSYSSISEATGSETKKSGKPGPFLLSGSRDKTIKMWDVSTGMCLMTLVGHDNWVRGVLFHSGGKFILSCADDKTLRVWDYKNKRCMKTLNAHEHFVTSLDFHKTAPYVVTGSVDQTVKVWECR
The experiment can be described thus: SPR; oligomeric/fibrillar C-region (His-C-region incubated at 4 °C for two weeks, MBP-C-region for two months) amine-coupled to a CM5 chip (250 RU); analytes 0.75-10 µM without regeneration; 25 °C, PBS pH 7.4; equilibrium responses fitted with Hill's equation; apparent affinities. To be noted: both partners purified. Background: Surface plasmon resonance follows binding to a sensor surface in real time, without labels.

For experiment [6], the target named is T3, NDE-like 1 (NDEL1) (UniProt Q9GZM8 1-345). Described as above. The following applies: both partners purified.
Experiment [7] has as its target T3, NDE-like 1 (NDEL1). Description: SPR; freshly prepared MBP-C-region (representing the monomer) amine-coupled to a CM5 chip (250 RU); analytes 0.75-10 µM without regeneration; 25 °C, PBS pH 7.4 (20 mM Na-phosphate, 150 mM NaCl); equilibrium responses fitted with Hill's equation. To be noted: both partners purified.
Experiment [8] addresses T2, lissencephaly 1 (LIS1). The description is as above. To be noted: both partners purified.
Experiment [9] addresses T3, NDE-like 1 (NDEL1). The experiment is described as above. To be noted: both partners purified. The source holds these as a separate data set.
The target in experiment [10] is T4, MBP-His6-fused human DISC1 C-region (residues 691-836) (human), Q9NRI5.
T4 chain: T1 chain
The experiment can be described thus: dynamic light scattering; MBP-tagged C-region in solution at different temperatures (Fig. S1). The following applies: remark: other sources report otherwise.

Several values for one entry are separate records, joined by “and”; a condition that tells them apart may be missing. Equal values may be shown once.

T3 sequence (Q9GZM8 whole entry): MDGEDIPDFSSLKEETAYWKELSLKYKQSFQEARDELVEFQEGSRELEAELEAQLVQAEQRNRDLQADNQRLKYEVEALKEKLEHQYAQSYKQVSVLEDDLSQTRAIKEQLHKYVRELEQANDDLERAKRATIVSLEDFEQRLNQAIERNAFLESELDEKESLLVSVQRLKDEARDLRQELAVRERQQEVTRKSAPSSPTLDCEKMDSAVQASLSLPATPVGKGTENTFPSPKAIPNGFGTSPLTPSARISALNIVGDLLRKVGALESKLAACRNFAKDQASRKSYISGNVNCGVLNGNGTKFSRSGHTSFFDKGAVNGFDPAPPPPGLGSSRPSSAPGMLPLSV

B1: His6-tagged human DISC1 C-region (residues 691-836), Q9NRI5 691-836 (domain or fragment)
chain: T1 chain
A word on the stoichiometry N: it is the number of molecules, sites or subunits per partner or assembly. On to B1, for which the stoichiometry N in experiment [1] was 4 and 5 and 6; in experiment [3], 4. This molecule also gave a dH in experiment [2] of -71.2 kcal/mol. For the same molecule, in [4], the critical concentration (1/KF of fibril formation) was 750 nM.

B2: MBP-His6-fused human DISC1 C-region (residues 691-836) (domain or fragment, UniProt Q9NRI5 691-836, looked up)
chain: T1 chain
notes: disrupted in schizophrenia 1 (DISC1), human, C-region, residues 691-836 of full-length human DISC1; Cloned in pET-15b; Used freshly prepared to represent the monomer, and after two months at 4 °C as oligomer/fibril, in SPR; also called MBP-C-region; MBP-C region; source: E. coli (DE3) C43, purified (Co2+-NTA, amylose column); not shown: MBP, N-terminal, kept; His6, N-terminal, kept
Turning to B2, the Kd was determined as 0.031 µM in experiment [5]; 14 µM in experiment [6]; 28 µM in [7]; 0.071 µM in [8]; 20 µM in experiment [9].

B3: MBP-His6-fused human DISC1 C-region (residues 691-836), Q9NRI5 691-836 (domain or fragment)
chain: T1 chain
B3 displayed a stoichiometry N in [10] of 4.

B4: His6-tagged human DISC1 C-region (residues 691-836) (domain or fragment, UniProt Q9NRI5 691-836, looked up)
chain: T1 chain
notes: disrupted in schizophrenia 1 (DISC1), human, C-region, residues 691-836 of full-length human DISC1; Vector pESPRIT002; Theoretical mass of the tagged protein 19.4 kDa; for SPR it was incubated at 4 °C for two weeks (oligomer/fibril); also called His6-C-region; His-C-region; source: E. coli BL21 (DE3) pLysE T1R, purified (Co2+-NTA, Superdex 200 SEC); not shown: His6, N-terminal, kept
Turning to B4, the Kd in [5] is 0.031 µM; in [6], 13 µM.
